Source: publication PMC2193908 (The Journal of Experimental Medicine, 2003)
Read-outs that look alike come from different tables or passages of the source. Values belong to the molecule of their own block, whether it stands above or below them.

Tests used:
Assay in all cases: radioligand binding
[1] = target: CXCR3-B (alternatively spliced variant of CXCR3) (human) (UniProt P49682)
[2] = target: CXCR3-A (classic CXC chemokine receptor 3) (human) (UniProt P49682)
[3] = target: CXCR3-B (alternatively spliced variant of CXCR3) (human) (UniProt P49682); remark: listed apart in the source
[4] = target: CXCR3-B on the renal carcinoma ACHN cell line (human (endogenous in ACHN)) (UniProt P49682)
[5] = target: T1, CXCR3-B on the renal carcinoma ACHN cell line (human (endogenous in ACHN), UniProt P49682-2 1-415)
T1 sequence (looked up): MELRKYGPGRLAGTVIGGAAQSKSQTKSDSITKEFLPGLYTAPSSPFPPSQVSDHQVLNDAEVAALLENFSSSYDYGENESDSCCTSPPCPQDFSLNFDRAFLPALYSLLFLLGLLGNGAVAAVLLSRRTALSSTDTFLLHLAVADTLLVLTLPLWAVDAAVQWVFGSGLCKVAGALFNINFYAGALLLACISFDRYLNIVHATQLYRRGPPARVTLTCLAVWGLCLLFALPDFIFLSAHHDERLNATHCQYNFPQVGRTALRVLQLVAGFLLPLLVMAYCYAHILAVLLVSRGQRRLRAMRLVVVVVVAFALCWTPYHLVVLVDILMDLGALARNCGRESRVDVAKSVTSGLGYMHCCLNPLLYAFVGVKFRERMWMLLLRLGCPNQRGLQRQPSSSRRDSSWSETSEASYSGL

[6] = target: T2, CXCR3-A (classic CXC chemokine receptor 3) (human, UniProt P49682-1 1-368)
T2 sequence (looked up): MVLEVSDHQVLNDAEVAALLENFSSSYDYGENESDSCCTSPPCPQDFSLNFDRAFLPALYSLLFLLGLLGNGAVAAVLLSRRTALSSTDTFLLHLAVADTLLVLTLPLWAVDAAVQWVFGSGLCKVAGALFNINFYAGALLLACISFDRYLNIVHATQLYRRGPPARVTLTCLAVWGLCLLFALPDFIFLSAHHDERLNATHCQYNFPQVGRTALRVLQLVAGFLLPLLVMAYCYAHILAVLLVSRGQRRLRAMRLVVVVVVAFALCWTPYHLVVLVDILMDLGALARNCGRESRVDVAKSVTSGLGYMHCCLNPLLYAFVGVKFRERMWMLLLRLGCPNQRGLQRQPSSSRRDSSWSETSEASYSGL

[7] = target: T3, CXCR3-B (alternatively spliced variant of CXCR3) (human, UniProt P49682-2 1-415)
T3 sequence (looked up): T1 sequence (looked up)

IC50 [1]: 1.85 nM | IC50 [2]: 448 nM | IC50 [3]: 7.46 nM | IC50 [4]: 6.83 nM
Molecule: CXCL4/PF4 (platelet factor 4) (ligand)

IC50 [5]: 88.5 ± 69.3 nM | IC50 [6]: 33 ± 24 nM | IC50 [7]: 133 ± 46.5 nM
B1: CXCL9/Mig (ligand, human, UniProt Q07325 23-125, looked up)
chain: TPVVRKGRCSCISTNQGTIHLQSLKDLKQFAPSPSCEKIEIIATLKNGVQTCLNPDSADVKELIKKWEKQVSQKKKQKNGKKHQKKKVLKVRKSQRSRQKKTT

IC50 [5]: 49.6 ± 11.3 nM | IC50 [6]: 0.41 ± 0.14 nM | IC50 [7]: 32 ± 10.2 nM
B2: CXCL11/I-TAC (ligand, human, UniProt O14625 22-94, looked up)
chain: FPMFKRGRCLCIGPGVKAVKVADIEKASIMYPSNNCDKIEVIITLKENKGQRCLNPKSKQARLIIKKVERKNF
